The series concerns the molecule itself. Briefly: crystal structure; wt hSTING (140-379) co-crystallised with CDN 5f, 5k, 5l or 5m; sitting drop vapor diffusion, 18 °C; chains A/B with one ligand molecule.

The text below walks through data of article PMC9620234, “Design, Synthesis, and Biochemical and Biological Evaluation of Novel 7-Deazapurine Cyclic Dinucleotide Analogues as STING Receptor Agonists” (Journal of Medicinal Chemistry, 2022).

B1: human wild-type STING truncated to residues 140–379 (domain or fragment, UniProt Q86WV6 140-379, looked up)
chain: APAEISAVCEKGNFNVAHGLAWSYYIGYLRLILPELQARIRTYNQHYNNLLRGAVSQRLYILLPLDCGVPDNLSMADPNIRFLDKLPQQTGDHAGIKDRVYSNSIYELLENGQRAGTCVLEYATPLQTLFAMSQYSQAGFSREDRLEQAKLFCRTLEDILADAPESQNNCRLIAYQEPADDSSFSLSQEVLRHLRQEEKEEVTVGSLKTSAVPSTSTMSQEPELLISGMEKPLPLRTDFS
notes: stimulator of interferon genes (STING), human, wild-type allele, UniProt Q86WV6, residues 140-379; Each crystal also holds one cyclic dinucleotide ligand (5f, 5k, 5l or 5m) in the site between the two chains; also called wt hSTING; stimulator of interferon genes; source: E. coli BL21 (DE3), purified (Ni-NTA, Ulp1 protease digestion, SEC, HiTrap Capto S)
For B1, the binding result is “binds”.
